Assay [1] concerns the target T1, human IGFBP-1 (human, UniProt P08833 26-259).
T1 construct: biotinylated in the ELISA formats; amine-coupled to the chip in peptide kinetics
T1 sequence (looked up): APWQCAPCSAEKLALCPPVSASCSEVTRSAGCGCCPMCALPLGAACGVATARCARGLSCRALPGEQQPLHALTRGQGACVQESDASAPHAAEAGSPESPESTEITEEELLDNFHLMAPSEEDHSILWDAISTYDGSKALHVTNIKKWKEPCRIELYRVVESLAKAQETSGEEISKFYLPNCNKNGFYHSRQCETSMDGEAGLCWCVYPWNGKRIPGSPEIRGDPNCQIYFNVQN
In words: competitive phage ELISA. (In general: ELISA stands for enzyme-linked immunosorbent assay.)

Assay [2] addresses T2, recombinant human IGFBP-3 (human, UniProt P17936 28-291).
T2 construct: biotinylated and held on a streptavidin chip in the ALS experiment
In words: competitive phage ELISA.

T2 sequence (P17936 28-291 limits assumed): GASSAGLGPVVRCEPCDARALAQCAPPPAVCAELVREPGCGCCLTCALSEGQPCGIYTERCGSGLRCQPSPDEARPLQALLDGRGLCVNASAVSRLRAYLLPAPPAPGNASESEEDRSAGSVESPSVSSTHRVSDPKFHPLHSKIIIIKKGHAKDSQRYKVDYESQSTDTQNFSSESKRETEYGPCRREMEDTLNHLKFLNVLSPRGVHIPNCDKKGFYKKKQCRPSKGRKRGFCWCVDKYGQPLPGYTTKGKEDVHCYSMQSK

The term IC50 denotes the concentration at which inhibition is half-maximal. Turning to “R55A IGF-1 (G1S-A70V background) on phage (from UniProt P69168 267-424) (ligand)”, in assay [1], the IC50 amounted to 9 nM and the relative IC50 (mut/G1S-A70V) is 1.1. Further, in assay [2], the half-inhibitory concentration (IC50) is 0.66 nM and the relative IC50 (mut/G1S-A70V) amounted to 0.9.
In assay [1], “G42A IGF-1 (G1S-A70V background) on phage (from UniProt P69168 267-424) (ligand)” registered a 50% inhibitory concentration (IC50) of 15.7 nM and a relative IC50 (mut/G1S-A70V) of 1.9. In assay [2], the IC50 worked out at 0.53 nM and the relative IC50 (mut/G1S-A70V) was determined as 0.7.
Turning to “M59A IGF-1 (G1S-A70V background) on phage (from UniProt P69168 267-424) (ligand)”, in assay [1], the IC50 is 13.1 nM and the relative IC50 (mut/G1S-A70V) was 1.6. In assay [2], the IC50 is 0.74 nM and the relative IC50 (mut/G1S-A70V) was 1.
In the case of “T4A IGF-1 (G1S-A70V background) on phage (from UniProt P69168 267-424) (ligand)”, in assay [1], the IC50 came to 19.4 nM and the relative IC50 (mut/G1S-A70V) came to 2.4. Further, in assay [2], the IC50 was found to be 0.8 nM and the relative IC50 (mut/G1S-A70V) came out at 1.1.
In assay [1], “R56A IGF-1 (G1S-A70V background) on phage (from UniProt P69168 267-424) (ligand)” displayed a half-inhibitory concentration (IC50) of 13.1 nM and a relative IC50 (mut/G1S-A70V) of 1.6. Moreover, in assay [2], the IC50 was determined as 1 nM and the relative IC50 (mut/G1S-A70V) is 1.3.
In assay [1], “T41A IGF-1 (G1S-A70V background) on phage (from UniProt P69168 267-424) (ligand)” came in with an IC50 of 13.7 nM and a relative IC50 (mut/G1S-A70V) of 1.7. For the same substance, in assay [2], the IC50 is 0.43 nM and the relative IC50 (mut/G1S-A70V) is 0.6.
Consider “G30A IGF-1 (G1S-A70V background) on phage (from UniProt P69168 267-424) (ligand)”, for which, in assay [1], the half-maximal inhibitory concentration (IC50) was determined as 7.1 nM and the relative IC50 (mut/G1S-A70V) came out at 0.9. Further, in assay [2], the IC50 was 0.58 nM and the relative IC50 (mut/G1S-A70V) was 0.8.
For “S1G IGF-1 (single mutant of G1S-A70V) on phage (from UniProt P69168 267-424) (ligand)” the same measures were 11.2 nM, 1.4, 0.99 nM and 1.3.
For the substance “K65A IGF-1 (G1S-A70V background) on phage (from UniProt P69168 267-424) (ligand)”, the half-inhibitory concentration (IC50) in assay [1] turned out to be 12.4 nM; in assay [2] it was 0.69 nM. The relative IC50 (mut/G1S-A70V) was 1.5 in assay [1] and 0.9 in assay [2].
Regarding “E46A IGF-1 (G1S-A70V background) on phage (from UniProt P69168 267-424) (ligand)”, in assay [1], the IC50 came out at 7.9 nM and the relative IC50 (mut/G1S-A70V) amounted to 1. In addition, in assay [2], the IC50 worked out at 0.94 nM and the relative IC50 (mut/G1S-A70V) was 1.3.
For “G7A IGF-1 (G1S-A70V background) on phage (from UniProt P69168 267-424) (ligand)” the same measures were > 1000 nM, > 100, 4.58 nM and 6.1.
For “P66A IGF-1 (G1S-A70V background) on phage (from UniProt P69168 267-424) (ligand)”, the IC50 in assay [1] amounted to 9.4 nM; in assay [2] it was 0.57 nM. The relative IC50 (mut/G1S-A70V) in assay [1] was 1.1; in assay [2], 0.8.
As for “Y31A IGF-1 (G1S-A70V background) on phage (from UniProt P69168 267-424) (ligand)”, in assay [1], the IC50 came out at 6.8 nM and the relative IC50 (mut/G1S-A70V) stood at 0.8. Further, in assay [2], the IC50 turned out to be 0.73 nM and the relative IC50 (mut/G1S-A70V) is 1.
For “E9A IGF-1 (G1S-A70V background) on phage (from UniProt P69168 267-424) (ligand)”, in assay [1], the half-inhibitory concentration (IC50) amounted to 8.6 nM and the relative IC50 (mut/G1S-A70V) came out at 1. Moreover, in assay [2], the half-inhibitory concentration (IC50) was found to be 1.32 nM and the relative IC50 (mut/G1S-A70V) turned out to be 1.8.
For “K68A IGF-1 (G1S-A70V background) on phage (from UniProt P69168 267-424) (ligand)”, the results for the half-maximal inhibitory concentration (IC50) in assay [1] and in assay [2] were 10.5 nM and 0.76 nM, respectively. The values for the relative IC50 (mut/G1S-A70V) in assay [1] and in assay [2] were 1.3 and 1, respectively.
Take “L54A IGF-1 (G1S-A70V background) on phage (from UniProt P69168 267-424) (ligand)”: in assay [1], the IC50 came out at 23.1 nM and the relative IC50 (mut/G1S-A70V) came out at 2.8. In addition, in assay [2], the IC50 came to 1.83 nM and the relative IC50 (mut/G1S-A70V) is 2.4.
Turning to “I43A IGF-1 (G1S-A70V background) on phage (from UniProt P69168 267-424) (ligand)”, in assay [1], the 50% inhibitory concentration (IC50) came out at 31.3 nM and the relative IC50 (mut/G1S-A70V) stood at 3.8. For the same substance, in assay [2], the IC50 worked out at 1.17 nM and the relative IC50 (mut/G1S-A70V) worked out at 1.6.
For “V44A IGF-1 (G1S-A70V background) on phage (from UniProt P69168 267-424) (ligand)”, the IC50 in assay [1] worked out at 18.8 nM; in assay [2], 1.03 nM. For the same substance, the relative IC50 (mut/G1S-A70V) in assay [1] came out at 2.3; in assay [2] it was 1.4.
For “L64A IGF-1 (G1S-A70V background) on phage (from UniProt P69168 267-424) (ligand)” the same measures were 12.1 nM, 0.93 nM, 1.5 and 1.2.
In the case of “R37A IGF-1 (G1S-A70V background) on phage (from UniProt P69168 267-424) (ligand)”, the results for the IC50 in assay [1] and in assay [2] were 12.3 nM and 0.75 nM, respectively. Further, the relative IC50 (mut/G1S-A70V) came to 1.5 in assay [1] and 1 in assay [2].
In assay [1], “V70A IGF-1 (single mutant of G1S-A70V) on phage (from UniProt P69168 267-424) (ligand)” yielded a half-maximal inhibitory concentration (IC50) of 19.1 nM and a relative IC50 (mut/G1S-A70V) of 2.3. In addition, in assay [2], the IC50 was 0.68 nM and the relative IC50 (mut/G1S-A70V) worked out at 0.9.
“T29A IGF-1 (G1S-A70V background) on phage (from UniProt P69168 267-424) (ligand)”: the 50% inhibitory concentration (IC50) in assay [1] was 7.3 nM; in assay [2], 1.23 nM. For the same substance, the relative IC50 (mut/G1S-A70V) in assay [1] is 0.9; in assay [2], 1.6.
For “D45A IGF-1 (G1S-A70V background) on phage (from UniProt P69168 267-424) (ligand)”, the concentration for half-maximal inhibition (IC50) in assay [1] turned out to be 4.7 nM; in assay [2], 0.69 nM. The relative IC50 (mut/G1S-A70V) is 0.6 in assay [1] and 0.9 in assay [2].
Consider “Q40A IGF-1 (G1S-A70V background) on phage (from UniProt P69168 267-424) (ligand)”, for which, in assay [1], the IC50 came out at 10.2 nM and the relative IC50 (mut/G1S-A70V) was found to be 1.2. Further, in assay [2], the IC50 worked out at 0.56 nM and the relative IC50 (mut/G1S-A70V) was 0.7.
Turning to “F49A IGF-1 (G1S-A70V background) on phage (from UniProt P69168 267-424) (ligand)”, in assay [1], the IC50 is > 1000 nM and the relative IC50 (mut/G1S-A70V) is > 100. Besides, in assay [2], the half-maximal inhibitory concentration (IC50) is 2.72 nM and the relative IC50 (mut/G1S-A70V) is 3.6.
In the case of “D53A IGF-1 (G1S-A70V background) on phage (from UniProt P69168 267-424) (ligand)”, the IC50 in assay [1] worked out at 15.3 nM; in assay [2], 1.05 nM. Besides, the results for the relative IC50 (mut/G1S-A70V) in assay [1] and in assay [2] were 1.9 and 1.2, respectively.
“Y60A IGF-1 (G1S-A70V background) on phage (from UniProt P69168 267-424) (ligand)”: the IC50 is 6.6 nM in assay [1] and 0.52 nM in assay [2]. In addition, the relative IC50 (mut/G1S-A70V) in assay [1] was 0.8; in assay [2], 0.7.
In assay [1], “L57A IGF-1 (G1S-A70V background) on phage (from UniProt P69168 267-424) (ligand)” returned an IC50 of 21.8 nM and a relative IC50 (mut/G1S-A70V) of 2.7. In assay [2], the half-inhibitory concentration (IC50) was 1.78 nM and the relative IC50 (mut/G1S-A70V) worked out at 2.4.
As to “E3A IGF-1 (G1S-A70V background) on phage (from UniProt P69168 267-424) (ligand)”, in assay [1], the IC50 worked out at 278 nM and the relative IC50 (mut/G1S-A70V) turned out to be 33.9. Moreover, in assay [2], the half-inhibitory concentration (IC50) was found to be 1.05 nM and the relative IC50 (mut/G1S-A70V) was determined as 1.4.
On to “S51A IGF-1 (G1S-A70V background) on phage (from UniProt P69168 267-424) (ligand)”, for which, in assay [1], the IC50 came out at 13.4 nM and the relative IC50 (mut/G1S-A70V) turned out to be 1.6. In addition, in assay [2], the concentration for half-maximal inhibition (IC50) turned out to be 0.65 nM and the relative IC50 (mut/G1S-A70V) came to 0.9.
In assay [1], “L5A IGF-1 (G1S-A70V background) on phage (from UniProt P69168 267-424) (ligand)” yielded an IC50 of 55.3 nM and a relative IC50 (mut/G1S-A70V) of 6.7. Also, in assay [2], the IC50 amounted to 1.53 nM and the relative IC50 (mut/G1S-A70V) amounted to 2.
In the case of “P63A IGF-1 (G1S-A70V background) on phage (from UniProt P69168 267-424) (ligand)”, in assay [1], the IC50 was > 1000 nM and the relative IC50 (mut/G1S-A70V) is > 100. Besides, in assay [2], the half-inhibitory concentration (IC50) was > 100 nM and the relative IC50 (mut/G1S-A70V) is > 100.
Turning to “S35A IGF-1 (G1S-A70V background) on phage (from UniProt P69168 267-424) (ligand)”, the IC50 in assay [1] came to 11.7 nM; in assay [2], 0.47 nM. For the same substance, the relative IC50 (mut/G1S-A70V) in assay [1] was 1.4; in assay [2], 0.6.

The values above are taken from patent US20030211992A1 (published 2003).
